Measured values: patent publication US7276481B2, “Method and composition for treatment of skeletal dysplasias” (ProChon Biotech Ltd., priority 2001, dated 2007)
“Also recorded” adds a separate entry of the source. Where two headings read alike, the source gives them in different places.

Experiments:
[1] = 125Iodine-labeled GH in blood after IP administration; type: in vivo, mice; conditions: 125Iodine-labeled GH IP, one hour after a pulse of unlabelled GH
From the text: To determine whether GH can enter the growth plate from the circulation, GH was labeled with ^125Iodine and administered to mice IP, one hour after a pulse of unlabelled GH. Blood samples were collected at several time points and analyzed on a protein gel.

[2] = system: femora derived from achondroplasia model mice (Ach369, Ach374) and wild type littermates; experiment: Ex vivo femoral bone culture; conditions: for bone elongation / longitudinal growth in bone culture (in words): femora of Ach and wild type mice, versus vehicle or untreated; for Growth rate (days 0-3) / Growth rate (days 3-15): CNP treated femora, 40 units=1 mm
Protocol: Femora derived from achondroplasia model mice (Ach369 knock-in mice carry the Gly to Cys mutation at position 369, analogous to position 375 in humans or Ach374 knock-in mice that carry the Gly to Arg mutation at position 374, analogous to position 380 in humans) were dissected from P0 wild type, heterozygote and homozygote littermates and cultured in the presence of natriuretic peptides for 15 days.
Protocol for Bone Culture: Femoral bone cultures were performed by excising the hind limbs of mice. The limbs were carefully cleaned from the surrounding tissue (skin and muscles) and the femora exposed. The femora were removed and further cleared from tissue remains and ligaments. The femora were measured for their initial length, using a binocular with an eyepiece micrometer ruler. The bones were grown in 1 ml of medium (α-MEM supplemented with penicillin (100 units/ml), streptomycin (0.1 mg/ml), nystatin (12.5 units/ml), BSA (0.2%), β-glycerophosphate (1 mM) and freshly prepared ascorbic acid (50 μg/ml)) with varying concentrations of NPs or CNP variants in a 24 well tissue culture dish. The bones were cultured for 15 days while measurements of bone length and medium replacement were performed every three days. At the end of the experiment, the growth rate of the bones was determined. The growth rate of bones is calculated from the slope of a linear regression fit on the length measurements obtained from day 3 to 15. Units given can be converted to length, 40 units=1 mm.

[3] = target: T1, natriuretic peptide receptor on C3H10T1/2 cells (Mus musculus, UniProt Q6VVW5); experiment: Biotrak enzyme immunoassay of cGMP elicited on C3H10T1/2 cells; type: cell-based
T1 construct: endogenous in cells; host or cells: C3H10T1/2 cells
T1 sequence (Q6VVW5 23-1047 limits assumed): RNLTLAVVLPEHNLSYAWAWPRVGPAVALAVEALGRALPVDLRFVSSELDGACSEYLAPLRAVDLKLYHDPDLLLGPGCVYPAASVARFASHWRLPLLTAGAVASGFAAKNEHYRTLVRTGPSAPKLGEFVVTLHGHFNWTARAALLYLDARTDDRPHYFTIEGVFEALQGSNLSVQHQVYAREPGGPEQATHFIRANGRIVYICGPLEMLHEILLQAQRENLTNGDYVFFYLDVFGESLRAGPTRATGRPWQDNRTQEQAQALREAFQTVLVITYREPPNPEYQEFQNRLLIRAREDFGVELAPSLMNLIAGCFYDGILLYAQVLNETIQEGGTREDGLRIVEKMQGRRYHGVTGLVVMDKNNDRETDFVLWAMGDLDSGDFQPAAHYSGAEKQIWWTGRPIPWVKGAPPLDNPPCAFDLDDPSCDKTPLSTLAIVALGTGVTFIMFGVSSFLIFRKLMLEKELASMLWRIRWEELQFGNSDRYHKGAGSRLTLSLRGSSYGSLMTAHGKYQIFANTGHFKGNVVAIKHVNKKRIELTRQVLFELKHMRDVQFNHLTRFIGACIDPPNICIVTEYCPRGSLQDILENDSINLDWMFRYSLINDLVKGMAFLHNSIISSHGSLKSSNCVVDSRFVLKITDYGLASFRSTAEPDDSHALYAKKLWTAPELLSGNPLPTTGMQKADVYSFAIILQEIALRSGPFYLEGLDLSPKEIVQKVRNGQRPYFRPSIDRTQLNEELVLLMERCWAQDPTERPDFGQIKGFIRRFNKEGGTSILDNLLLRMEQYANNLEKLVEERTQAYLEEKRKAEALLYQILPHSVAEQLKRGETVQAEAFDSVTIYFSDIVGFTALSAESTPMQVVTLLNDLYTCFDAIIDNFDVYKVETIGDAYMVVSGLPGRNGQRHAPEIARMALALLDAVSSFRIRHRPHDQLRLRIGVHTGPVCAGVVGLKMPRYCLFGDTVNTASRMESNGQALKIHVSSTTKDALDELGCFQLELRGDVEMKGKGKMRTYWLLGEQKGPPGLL
Protocol: All peptide variants were analyzed for activity using the Biotrak enzyme immunoassay (EIA, Amersham) that measures the amount of secondary messenger, cyclic GMP (cGMP), elicited after activation of the natriuretic peptide receptor by the peptide on C3H10T1/2 cells. Amino acid substitutions are marked in bold and underlined. The assay was performed for CNP and variants at a concentration of 10^−6 M. The values are given as the percent of relative binding compared to CNP, where CNP 1-22 and CNP 5-22 yield 100% binding.

[4] = system: fetal bone organ culture from wild type (normal) animals; conditions: wild type fetal bones; cited from earlier work
[5] = Table 2, cGMP assay, compared to CNP
[6] = Table 3, cGMP values at 10^-6 M, compared to CNP (CNP 1-22 and CNP 5-22 = 100%)

| Substance | cGMP response as percent of CNP [3, 6] | other results |
| --- | --- | --- |
| GH: growth hormone labeled with 125Iodine and administered to mice IP | – | labeling of blood samples on a protein gel over time [1]: increases in the first 2-3 hours, can still be observed at 6 hours and almost disappears at 24 hrs |
| C F G L K L D R I G S A S G L G C (CFGLKLDRIGSASGLGC; peptide variant) [SEQ ID NO:10] | – | bone elongation / longitudinal growth in bone culture (in words) [2]: induced elongation of Ach369 femora even at a concentration similar to that of CNP; activity in cGMP assay (in words) [3]: increases activity; cGMP response as percent of CNP [3, 5]: 138.1%; activity in cGMP assay (in words) ([3]; listed as SEQ ID NO: 10): retains high activity |
| C F G L K L D R I G S H S G L G C (CFGLKLDRIGSHSGLGC; peptide variant) [SEQ ID NO:66] | 66.222% | – |
| C-type natriuretic peptide [CNP] | 100% | Growth rate (days 0-3) ([2]; +/+ wild type (wt)): 0.25 mm/day; Growth rate (days 3-15) ([2]; +/+ wild type (wt)): 0.143 mm/day; Growth rate (days 0-3) ([2]; Ach/+ heterozygote): 0.228 mm/day; Growth rate (days 3-15) ([2]; Ach/+ heterozygote): 0.085 mm/day; Growth rate (days 0-3) ([2]; Ach/Ach homozygote): 0.177 mm/day; Growth rate (days 3-15) ([2]; Ach/Ach homozygote): 0.07 mm/day; bone elongation / longitudinal growth in bone culture (in words) [2]: increased the total longitudinal growth of femora; also recorded: increased in size at a rate higher than that of the untreated limbs; induction of bone elongation (rank order) [4]: more than BNP and much more than ANP |
| C F G L K L D R I G S M S L L G C (CFGLKLDRIGSMSLLGC; peptide variant) [SEQ ID NO:59] | 15.289% | – |
| C A G L K L D R I G S M S G L G C (CAGLKLDRIGSMSGLGC; peptide variant) [SEQ ID NO:6] | – | cGMP response as percent of CNP [3, 5]: 43.8% |
| C F G L K L D Q I G S M S G L G C (CFGLKLDQIGSMSGLGC; peptide variant) [SEQ ID NO:50] | 11.953% | – |
| C F G L K L E R I G S M S G L G C (CFGLKLERIGSMSGLGC; peptide variant) [SEQ ID NO:35] | 9.450% | – |
| C F G L K L D R I G A Q - - - - C (CFGLKLDRIGAQC; peptide variant) [SEQ ID NO:19] | – | cGMP response as percent of CNP [3, 5]: 3.8% |
| C F G L K L D R I G S M S K L G C (CFGLKLDRIGSMSKLGC; peptide variant) [SEQ ID NO:60] | 49.202% | – |
| C F G L K L D R I G A M S G L G C (CFGLKLDRIGAMSGLGC; peptide variant) [SEQ ID NO:54] | 54.469% | – |
| C F G L K L D R I G S M S G Q G C (CFGLKLDRIGSMSGQGC; peptide variant) [SEQ ID NO:61] | −3.474% | – |
| C F G L K L D H I G S M S G L G C (CFGLKLDHIGSMSGLGC; peptide variant) [SEQ ID NO:48] | 13.482% | – |
| C F G L K A D R I G S M S G L G C (CFGLKADRIGSMSGLGC; peptide variant) [SEQ ID NO:45] | 11.259% | – |
| C F G L K I D R I G S M S G L G C (CFGLKIDRIGSMSGLGC; peptide variant) [SEQ ID NO:46] | 88.117% | – |
| C F G L K L D R A G S M S G L G C (CFGLKLDRAGSMSGLGC; peptide variant) [SEQ ID NO:9] | – | cGMP response as percent of CNP [3, 5]: 11.5% |
| C H F G L K L D R I G S M A - - C (CHFGLKLDRIGSMAC; peptide variant) [SEQ ID NO:12] | – | cGMP response as percent of CNP [3, 5]: 21.7% |
| C F G L L L D R I G S M S G L G C (CFGLLLDRIGSMSGLGC; peptide variant) [SEQ ID NO:43] | 29.744% | – |
| C H F G L K L D R I G S - - - - C (CHFGLKLDRIGSC; peptide variant) [SEQ ID NO:20] | – | cGMP response as percent of CNP [3, 5]: 11.9% |
| C F G L K L D R T G S M S G L G C (CFGLKLDRTGSMSGLGC; peptide variant) [SEQ ID NO:53] | −1.945% | – |
| C F G L K L M R I G S M S G L G C (CFGLKLMRIGSMSGLGC; peptide variant) [SEQ ID NO:39] | 7.784% | – |
| C H G L K L D R I G S A S G L G C (CHGLKLDRIGSASGLGC; peptide variant) [SEQ ID NO:70] | 3.058% | – |
| C F G I K L D R I G S M S G L G C (CFGIKLDRIGSMSGLGC; peptide variant) [SEQ ID NO:41] | 47.395% | – |
| C F G L K L D R I G S M S A L G C (CFGLKLDRIGSMSALGC; peptide variant) [SEQ ID NO:58] | 53.649% | – |
| C H G L K L D R I G S M S G L G C (CHGLKLDRIGSMSGLGC; peptide variant) [SEQ ID NO:33] | 5.699% | – |
| C F G L K L D R I G N M S G L G C (CFGLKLDRIGNMSGLGC; peptide variant) [SEQ ID NO:57] | 27.430% | – |
